Experimental data reported in patent publication US20190022245A1 (ACADEMIA SINICA, published 2019).

Experiments:
[1] = molecular target: T1, epidermal growth factor receptor (EGFR) on cells (human (on human cell lines), UniProt P00533 25-1210); assay: flow cytometry, BsAb on A431 cells then PEG-liposome Texas Red or PEG-Qdot655
T1 construct: whole, on cells
Experimental: PEG2×TAG72 or control PEG2×DNS BsAbs (10 μg/mL) were incubated with A-375(TAG72-), MCF-7(TAG72+), Jurkat (TAG72+) or OVCAR-3(TAG72+) cells at 4° C. for 30 min followed by FITC-labeled goat anti-human immunoglobulin second antibody (2 μg/m L) (Jackson ImmunoResearch Laboratories, West Grove, Pa.) or FITC-labeled 4arm-PEG (2 μg/mL). Tumor-specific targeting of PEGylated compounds was also examined by staining A431 (EGFR^high), and Raji (CD19^high) cell lines with 10 μg/mL of h6.3Fab×EGFR or h6.3Fab×CD19 BsAbs in PBS containing 0.05% BSA (staining buffer) at 4° C. for 30 min. The cells were washed with cold PBS for 3 times. PEG-Qdot655 (8 nM) (Invitrogen, Grand Island, N.Y.) or PEG-liposomal Texas-Red (100 nm size, 50 μM, lipid conc.) (FormuMax Scientific, Palo Alto, Calif.) in staining buffer was added to cells for 30 min at 4° C. […] After washing with cold PBS, the surface fluorescence of 10⁴ viable cells was measured by FACScaliber flow cytometer (Becton Dickinson, Mountain View, Calif., USA) then analyzed with Flowjo (Tree Star Inc., San Carlos, Calif., USA).
Further, both h6-3Fab×EGFR and h6.3Fab×CD19 BsAbs bound to the NH₂-PEG_{10,000}-NH2, but not to the control BSA protein, indicating their binding specificity toward PEG molecule (FIGS. 14A and 14B). […]

[2] = molecular target: T2, BSA (control protein coated on ELISA plates) (UniProt P02769 25-607); assay: ELISA, BSA-coated plate, graded concentrations
T2 construct: also called control BSA protein
T2 sequence (P02769 25-607 limits assumed): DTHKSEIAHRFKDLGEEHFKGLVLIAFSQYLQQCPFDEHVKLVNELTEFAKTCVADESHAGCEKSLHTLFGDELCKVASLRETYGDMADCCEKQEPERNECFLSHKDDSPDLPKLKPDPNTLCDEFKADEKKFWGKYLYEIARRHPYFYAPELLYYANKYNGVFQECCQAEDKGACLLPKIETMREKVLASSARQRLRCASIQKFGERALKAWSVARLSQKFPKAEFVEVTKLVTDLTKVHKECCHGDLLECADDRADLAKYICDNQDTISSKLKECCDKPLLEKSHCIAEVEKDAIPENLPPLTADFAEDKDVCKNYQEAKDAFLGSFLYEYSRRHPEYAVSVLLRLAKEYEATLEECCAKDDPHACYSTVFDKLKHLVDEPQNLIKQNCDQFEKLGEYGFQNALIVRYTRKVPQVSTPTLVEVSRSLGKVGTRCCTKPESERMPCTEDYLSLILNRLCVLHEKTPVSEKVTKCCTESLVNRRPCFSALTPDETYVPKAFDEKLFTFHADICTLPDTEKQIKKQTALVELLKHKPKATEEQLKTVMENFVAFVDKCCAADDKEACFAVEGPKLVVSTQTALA
Experimental: The anti-PEG binding specificity of BsAbs was measured by adding graded concentrations of PEG2×TAG72,PEG2×DNS, hCC49 scFv, h6.3Fab×EGFR or h6.3Fab×CD19 in 50 μL 2% skim milk to the mucin, BSA-PEG5000, NH₂-PEG₃ₖ-NH₂ or BSA coated plates at RT for 1 h. The plates were washed with PBS-T (PBS containing 0.05% Tween-20) three times. Rabbit anti-6×His (2 μg/mL) supplemented with HRP-conjugated goat anti-rabbit (2 μg/mL) or HRP-conjugated goat Ig anti human IgG Fab (2 μg/mL) (Jackson ImmunoResearch Laboratories, West Grove, Pa.) in 50 μL dilution buffer were added for 1 h at room temperature. The plates were washed with PBS-T (PBS containing 0.05% Tween-20) three times and with PBS two times. Bound peroxidase activity was measured by adding 150 μL/well ABTS substrate solution (BioLegend, San Diego, Calif.) for 30 min at room temperature. The absorbance (405 nm) of wells was measured in a microplate reader (Molecular Device, Menlo Park, Calif.).
Further, both h6-3Fab×EGFR and h6.3Fab×CD19 BsAbs bound to the NH₂-PEG_{10,000}-NH2, but not to the control BSA protein, indicating their binding specificity toward PEG molecule (FIGS. 14A and 14B). […] The PEG-binding kinetics of h6-3Fab×EGFR and h6.3Fab×CD19 BsAbs were verified by Microscale Thermophoresis (MST) (FIGS. 14D and 14E).

[3] = molecular target: T3, human epidermal growth factor receptor (HER2) on cells (human, UniProt P04626 23-1255); assay: flow cytometry on BT-474 cells
T3 construct: whole, on cells; also called HER2/Neu; Her2/neu

[4] = molecular target: T1, epidermal growth factor receptor (EGFR) …; assay: culture medium on MDA-MB-468 cells (EGFR positive), FITC anti-human Ig
Experimental: (§1) The binding specificity of monovalent BsAbs with their target proteins was measured by collecting the culture medium of BsAbs producing cells, adding the collected medium to cells that expressed the target protein, then determining the binding by […]. After washing the cells, the bound BsAbs were detected by FITC-labeled goat anti-human immunoglobulin second antibody. […] Thus, monovalent anti-PEG (hE11) BsAbs bound to target cells in an antigen-dependent and selective manner.

[5] = molecular target: T3, human epidermal growth factor receptor …; assay: culture medium on BT-474 cells (HER2 positive), FITC anti-human Ig
Experimental: as §1

[6] = molecular target: T3, human epidermal growth factor receptor …; assay: flow cytometry, 10 µg/ml BsAb, FITC anti-human IgG; also methoxy-PEG Qdot 655 retained at SKBR3 cells
[7] = molecular target: T3, human epidermal growth factor receptor …; assay: flow cytometry on SKBR3 cells (HER2+), FITC anti-human IgG

B1: h6.3 Fab × CD19 (monovalent anti-PEG (h6.3) anti-CD19 BsAb) (bispecific antibody)
light: DIVMTQSPDSLAVSLGERATINCKSSQSVLYSSNQMNYLAWYQQKPGQPPKLLIYWASTRESGVPDRFSGSGSGTDFTLTISSLQAEDVAVYYCLQYLSSWTFGGGTKLEIKTYSLSSTLTLSKADYEKHKLYACEVTHQGLSSPVTKSFNRGEC
heavy: QVQLVQSGSELKKPGASVKVSCKASGYTFKNYGMNWVRQAPGQGLEWMGWINTYTGQPIYANDFKGRFVFSLDTSVSTAYLQISSLKAEDTAVYYCARDWGPYWGQGTLVTVSSASTKGPSVFPLAPSSKSTSGGTAALGCLVKDYFPEPVTVSWNSGALTSGVHTFPAVLQSSGLYSLSSVVTVPSSSLGTQTYICNVNHKPSNTKVDKRVEPKSCDKVDLVTVSSASTGGGSGQLGGGGSQVQLQESGPGLVKPSQTLSLTCTVSGGSISTSGMGVGWIRQHPGKCLEWIGHIWWDDDKRYNPALKSRVTISVDTSKNQFSLKLSSVTAADTAVYYCARMELWSYYFDYWGQGTLVTVSSGGGGSGGGGSGGGGSEIVLTQSPATLSLSPGERATLSCSASSSVSYMHWYQQKPGQAPRLLIYDTSKLASGIPARFSGSGSGTDFTLTISSLEPEDVAVYYCFQGSVYPFTFGCGTKLEIKRTRHHHHHH
notes: Fab-dsFv; also called h6.3-hBU12
[1]
  binding result: no binding (tested: 10 µg/mL)
[2]
  binding result: no binding

B2: PEG2×HER2 (dimeric humanized anti-PEG (hE11) anti-HER2 BsAb) (bispecific antibody, human IgG1, kappa)
light: DVVMTQSPLSLPVTLGQPASISCRSSKSIVHSNGNTYLEWFQQRPGQSPRRLIYKVSKRMSGVPDRFSGSGSGTDFTLKISRVEAEDVGVYYCSQGSHVPPTFGGGTKVEIKRTVAAPSVFIFPPSDEQLKSGTASVVCLLNNFYPREAKVQWKVDNALQSGNSQESVTEQDSKDSTYSLSSTLTLSKADYEKHKLYACEVTHQGLSSPVTKSFNRGEC
heavy: not shown
notes: also called PEG2×HER2 BsAbs
[3]
  binding result: binds

B3: PEGxTAG72 (monovalent anti-PEG (hE11) Fab fused to anti-TAG72 scFv, example 2.1) (bispecific antibody)
light: DVVMTQSPLSLPVTLGQPASISCRSSKSIVHSNGNTYLEWFQQRPGQSPRRLIYKVSKRMSGVPDRFSGSGSGTDFTLKISRVEAEDVGVYYCSQGSHVPPTFGGGTKVEIKRTVAAPSVFIFPPSDEQLKSGTASVVCLLNNFYPREAKVQWKVDNALQSGNSQESVTEQDSKDSTYSLSSTLTLSKADYEKHKLYACEVTHQGLSSPVTKSFNRGEC
heavy: QVQLVQSGAEVKKPGASVKVSCKASGYTFTTYTMNWVRQAPGQGLEWMGYIIPSSGYVDYNQKFKGRVTMTRDTSTSTVYMELSSLRSEDTAVYYCVRSLDGYFWFAYWGQGTLVTVSSASTKGPSVFPLAPSSKSTSGGTAALGCLVKDYFPEPVTVSWNSGALTSGVHTFPAVLQSSGLYSLSSVVTVPSSSLGTQTYICNVNHKPSNTKVDKRVVDLVTVSSASTGGGSGQLGGGGSQVQLVQSGAEVKKPGASVKVSCKASGYTFTDHAIHWVRQAPGQCLEWMGYFSPGNDDFKYSQKFQGRVTITADKSASTAYMELSSLRSEDTAVYYCARSWIMQYWGQGTLVTVSSGGGGSGGGGSGGGGSDIVMTQSPDSLAVSLGERATINCKSSQSVLYSSNNKNYLAWYQQKPGQPPKLLIYWASTRESGVPDRFSGSGSGTDFTLTISSLQAEDVAVYYCQQYYSYPLTFGCGTKVEIKTRHHHHHH
notes: Tested as culture medium of producer cells; also called PEG×TAG72; monovalent anti-PEG (hE11) BsAb
[4]
  binding result: no binding
[5]
  binding result: no binding

B4: 15-2b knob/anti-HER2 hole (knob in hole anti-mPEG (h15-2b) anti-HER2 BsAb) (bispecific antibody)
light 1: DIQMTQSPSSLSASVGDRVTITCKASQDVNTSVAWYQQKPGKAPKLLIYWASTRHTGVPSRFSGSGSGTDFTFTISSLQPEDIATYYCLQYINYPYTFGQGTKLEIKRTVAAPSVFIFPPSDEQLKSGTASVVCLLNNFYPREAKVQWKVDNALQSGNSQESVTEQDSKDSTYSLSSTLTLSKADYEKHKLYACEVTHQGLSSPVTKSFNRGEC
heavy 1: not shown
light 2: QSVLTQPPSVSAAPGQKVTISCSGSSSNIGNNYVSWYQQLPGTAPKLLIYDHTNRPAGVPDRFSGSKSGTSASLAISGFRSEDEADYYCASWDYTLSGWVFGGGTKLTVLGSSASTKGPSVFPLAPSSKSTSGGTAALGCLVKDYFPEPVTVSWNSGALTSGVHTFPAVLQSSGLYSLSSVVTVPSSSLGTQTYICNVNHKPSNTKVDKKV
heavy 2: not shown
notes: Four different chains; also called h15-2b-knob/anti-HER2-hole; h15-2b-knob/anti-Her2-hole; not shown: HA tag fused at the N terminal of the hole heavy chain
[6]
  binding result: binds

B5: 15-2b knob/Bu12 hole (knob in hole anti-mPEG (h15-2b) anti-CD19 BsAb) (bispecific antibody)
light 1: DIQMTQSPSSLSASVGDRVTITCKASQDVNTSVAWYQQKPGKAPKLLIYWASTRHTGVPSRFSGSGSGTDFTFTISSLQPEDIATYYCLQYINYPYTFGQGTKLEIKRTVAAPSVFIFPPSDEQLKSGTASVVCLLNNFYPREAKVQWKVDNALQSGNSQESVTEQDSKDSTYSLSSTLTLSKADYEKHKLYACEVTHQGLSSPVTKSFNRGEC
heavy 1: not shown
light 2: EIVLTQSPATLSLSPGERATLSCSASSSVSYMHWYQQKPGQAPRLLIYDTSKLASGIPARFSGSGSGTDFTLTISSLEPEDVAVYYCFQGSVYPFTFGQGTKLEIKRSSASTKGPSVFPLAPSSKSTSGGTAALGCLVKDYFPEPVTVSWNSGALTSGVHTFPAVLQSSGLYSLSSVVTVPSSSLGTQTYICNVNHKPSNTKVDKKV
heavy 2: not shown
notes: Four different chains; also called h15-2b-knob/BU12-hole; h15-2b knob+BU12-hole; not shown: HA tag fused at the N terminal of the hole heavy chain
[7]
  binding result: no binding (tested: 10 µg/ml)
